T1: mouse HVEM (mouse, UniProt Q80WM9 39-206)
T1 chain: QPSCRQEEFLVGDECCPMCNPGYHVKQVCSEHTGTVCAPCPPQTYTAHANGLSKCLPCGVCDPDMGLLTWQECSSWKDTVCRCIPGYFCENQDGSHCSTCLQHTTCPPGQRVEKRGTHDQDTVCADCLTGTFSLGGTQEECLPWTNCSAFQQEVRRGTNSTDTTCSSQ

T2: human HVEM (human, UniProt Q92956 39-202)
T2 chain: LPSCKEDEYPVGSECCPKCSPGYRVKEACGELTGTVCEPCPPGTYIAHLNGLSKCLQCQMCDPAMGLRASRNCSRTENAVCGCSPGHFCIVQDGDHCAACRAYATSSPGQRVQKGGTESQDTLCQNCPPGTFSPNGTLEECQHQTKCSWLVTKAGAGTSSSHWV


How the values were obtained:
human LTβR = human LTβR (human, UniProt P36941 31-227)
mouse HVEM = target: T1, mouse HVEM
mouse LTβR = mouse LTβR (mouse, UniProt P50284 31-223)
human HVEM = target: T2, human HVEM

Row | Binder | Kd (m4-52) [nM] | Kd (human LTβR) [nM] | Kd (mouse HVEM) [nM] | Kd (mouse LTβR) [nM] | Kd (human HVEM) [nM] | further results
1 | mLTbR (receptor) QLVPPYRIENQTCWDQDKEYYEPMHDVCCSRCPPGEFVFAVCSRSQDTVCKTCPHNSYNEHWNHLSTCQLCRPCDIVLGFEEVAPCTSDRKAECRCQPGMSCVYLDNECVHCEEERLVLCQPGTEAEVTDEIMDTDVNCVPCKPGHFQNTSSPRARCQPHTRCEIQGLVEAAPGTSYSDTICKNPPEPGAMLL | 0.68 |  |  |  |  | 
2 | mHVEM (receptor) QPSCRQEEFLVGDECCPMCNPGYHVKQVCSEHTGTVCAPCPPQTYTAHANGLSKCLPCGVCDPDMGLLTWQECSSWKDTVCRCIPGYFCENQDGSHCSTCLQHTTCPPGQRVEKRGTHDQDTVCADCLTGTFSLGGTQEECLPWTNCSAFQQEVRRGTNSTDTTCSSQ | 2.44 |  |  |  |  | 
3 | wt (ligand) LIQERRSHEVNPAAHLTGANSSLTGSGGPLLWETQLGLAFLRGLSYHDGALVVTKAGYYYIYSKVQLGGVGCPLGLASTITHGLYKRTPRYPEELELLVSQQSPCGRATSSSRVWWDSSFLGGVVHLEAGEKVVVRVLDERLVRLRDGTRSYFGAFMV |  |  |  |  |  | Kd (DcR3): 0.6 nM
4 | wild type human LIGHT (ligand) LIQERRSHEVNPAAHLTGANSSLTGSGGPLLWETQLGLAFLRGLSYHDGALVVTKAGYYYIYSKVQLGGVGCPLGLASTITHGLYKRTPRYPEELELLVSQQSPCGRATSSSRVWWDSSFLGGVVHLEAGEKVVVRVLDERLVRLRDGTRSYFGAFMV |  | 1.3 |  |  |  | 
5 | m4-16 (protein) RRSHEVNPAAHLTGANFSLTGSGGPLLWETQLGQAFLRGLSYHDGALVVTKAGYYYIYSKVQLGGVGCPLGLASTITHGLYKRTPRYPEELELLVSQQSPCGRATSSSRVWWDSSFLGGVVHLEAGEEVVVRVLDDRLVRLRDGTRSYFGAFMV |  | 0.13 | 2.22 | 0.192 | 2.24 | 
6 | m4-7 (protein) RRSHEVNPAAHLTGANSSSTGSGGPLLWETQLGLAFLRGLSYHDGALVVTKAGYYYIYSKVQLRGVGCPLGLASTITHGLYKRTPRYPEELELLVSQQSPCGRATSSSRVWWDSSFLGGVVHLEAGEEVVVRVLDERLVRLRDGTRSYFGAFMV |  | 0.157 | 5.03 | 0.118 | 0.92 | 
7 | m4-14 (protein) RRSHEVNPAAHLTGANSSLTGSGGPLLWETQLGLAFLSGLSYHDGALVVTKAGYYYIYSKVQLRGVGCPLGLASTITHGLYKRTPRYPEELELLVSQQSPCGRATSSSRVWWDSSFLGGVVHLEAGEEVVVRVLGERLVRLRDGTRSYFGAFMV |  | 0.16 | 0.29 | 0.094 | 38.5 | 
8 | hHVEM (receptor) LPSCKEDEYPVGSECCPKCSPGYRVKEACGELTGTVCEPCPPGTYIAHLNGLSKCLQCQMCDPAMGLRASRNCSRTENAVCGCSPGHFCIVQDGDHCAACRAYATSSPGQRVQKGGTESQDTLCQNCPPGTFSPNGTLEECQHQTKCSWLVTKAGAGTSSSHWV | 1.42 |  |  |  |  | 
9 | hLTbR (receptor) QAVPPYASENQTCRDQEKEYYEPQHRICCSRCPPGTYVSAKCSRIRDTVCATCAENSYNEHWNYLTICQLCRPCDPVMGLEEIAPCTSKRKTQCRCQPGMFCAAWALECTHCELLSDCPPGTEAELKDEVGKGNNHCVPCKAGHFQNTSSPSARCQPHTRCENQGLVEAAPGTAQSDTTCKNPLEPLPPEMSGTMLM | 1.12 |  |  |  |  | 

Reference: patent US20150056219A1 (published 2015)
